Laboratory results taken from patent US8771644B2, “Imaging probes” (Sanofi, priority 2007, dated 2014).

Key:
Assay type in all cases: biochemical
[1] = substrate: CN(C)c1ccc2c(c1)Oc1cc(N(C)C)ccc1C21OC(=O)c2cc(C(=O)NCC[C@H](NC(=O)[C@H](CC3CCCCC3)NC(=O)N3CCOCC3)C(=O)NCCNC(=O)c3ccc(-c4c5ccc(=O)cc-5oc5cc(O)ccc45)c(C(=O)O)c3)ccc21; test: in vitro activity assay (fluorescence, substrate cleavage) with Cath K; conditions: other: Cath K; measurement performed at pH 5.5; pH 5.5; 37.0 °C
Experimental: (§1) […] The substrates were solved in DMSO and added to enzyme solution with a final concentration of 50 μM.
(§2) Fluorescence was measured with an Tecan SAFIRE II spectrometer (excitation wavelength: 336 nm; emission wavelength: 490 nm; excitation band: 10.0 nm; emission band: 10.0 nm; amplification (manual): 90).

[2] = substrate: CN(C)c1ccc(/N=N/c2ccc(C(=O)NCCCC[C@H](NC(=O)[C@H](CCC(=O)NCCNc3cccc4c(S(=O)(=O)O)cccc34)NC(=O)[C@H](CC3CCCCC3)NC(=O)N3CCOCC3)C(=O)O)cc2)cc1; test: as above; conditions: other: Cath K; measurement performed at pH 7.5; pH 7.5; 37.0 °C
Experimental: as §1, §2

[3] = substrate: CN(C)c1ccc2c(c1)Oc1cc(N(C)C)ccc1C21OC(=O)c2cc(C(=O)NCC[C@H](NC(=O)[C@H](CC3CCCCC3)NC(=O)N3CCOCC3)C(=O)NCCNC(=O)c3ccc(-c4c5ccc(=O)cc-5oc5cc(O)ccc45)c(C(=O)O)c3)ccc21; test: in vitro activity assay (fluorescence, substrate cleavage) with Papain; conditions: other: Papain; measurement performed at pH 5.5; pH 5.5; 37.0 °C
Experimental: as §1, §2

[4] = substrate: CN(C)c1ccc(/N=N/c2ccc(C(=O)NCCCC[C@H](NC(=O)[C@H](CCC(=O)NCCNc3cccc4c(S(=O)(=O)O)cccc34)NC(=O)[C@H](CC3CCCCC3)NC(=O)N3CCOCC3)C(=O)O)cc2)cc1; test: as above; conditions: other: Papain; measurement performed at pH 7.5; pH 7.5; 37.0 °C
Experimental: as §1, §2

[5] = substrate: CN(C)c1ccc(/N=N/c2ccc(C(=O)NCCCC[C@H](NC(=O)[C@H](CCC(=O)NCCNc3cccc4c(S(=O)(=O)O)cccc34)NC(=O)[C@H](CC3CCCCC3)NC(=O)N3CCOCC3)C(=O)O)cc2)cc1; test: in vitro activity assay (fluorescence, substrate cleavage) with Cath S; conditions: other: Cath S, measurement performed at pH 7.5, 37.0 °C

B1: Cath K (Homo sapiens) (protein)
chain: APDSVDYRKKGYVTPVKNQGQCGSCWAFSSVGALEGQLKKKTGKLLNLSPQNLVDCVSENDGCGGGYMTNAFQYVQKNRGIDSEDAYPYVGQEESCMYNPTGKAAKCRGYREIPEGNEKALKRAVARVGPVSVAIDASLTSFQFYSKGVYYDESCNSDNLNHAVLAVGYGIQKGNKHWIIKNSWGENWGNKGYILMARNKNNACGIANLASFPKM
- Km [1]: 35 µM
- Vmax [1]: 0.438 µmol/min
- kcat [1]: 0.192 s⁻¹
- Km [2]: 190 µM
- Vmax [2]: 0.018 µmol/min
- kcat/Km [2]: 27 M⁻¹ s⁻¹

B2: Papain (Carica papaya) (protein)
chain: IPEYVDWRQKGAVTPVKNQGSCGSCWAFSAVVTIEGIIKIRTGNLNEYSEQELLDCDRRSYGCNGGYPWSALQLVAQYGIHYRNTYPYEGVQRYCRSREKGPYAAKTDGVRQVQPYNEGALLYSIANQPVSVVLEAAGKDFQLYRGGIFVGPCGNKVDHAVAAVGYGPNYILIKNSWGTGWGENGYIRIKRGTGNSYGVCGLYTSSFYPVKN
- Km [3]: 6.3 µM
- Vmax [3]: 0.0024 µmol/min
- kcat [3]: 0.002 s⁻¹
- Km [4]: 520 µM
- Vmax [4]: 0.096 µmol/min
- kcat [4]: 0.1 s⁻¹
- kcat/Km [4]: 273 M⁻¹ s⁻¹

B3: Cath S (Homo sapiens) (protein)
chain: LPDSVDWREKGCVTEVKYQGSCGACWAFSAVGALEAQLKLKTGKLVSLSAQNLVDCSTEKYGNKGCNGGFMTTAFQYIIDNKGIDSDASYPYKAMDQKCQYDSKYRAATCSKYTELPYGREDVLKEAVANKGPVSVGVDARHPSFFLYRSGVYYEPSCTQNVNHGVLVVGYGDLNGKEYWLVKNSWGHNFGEEGYIRMARNKGNHCGIASFPSYPEI
- Km [5]: 32 µM
- Vmax [5]: 0.144 µmol/min
- kcat [5]: 0.11 s⁻¹
- kcat/Km [5]: 3260 M⁻¹ s⁻¹
